Source: paper PMC9470675 (Signal Transduction and Targeted Therapy, 2022)

B1: SARS-CoV N protein (purified recombinant) (natural protein)
chain: not shown
B2: recombinant MASP-2 (purified) (enzyme, human, UniProt O00187 16-686, looked up)
chain: TPLGPKWPEPVFGRLASPGFPGEYANDQERRWTLTAPPGYRLRLYFTHFDLELSHLCEYDFVKLSSGAKVLATLCGQESTDTERAPGKDTFYSLGSSLDITFRSDYSNEKPFTGFEAFYAAEDIDECQVAPGEAPTCDHHCHNHLGGFYCSCRAGYVLHRNKRTCSALCSGQVFTQRSGELSSPEYPRPYPKLSSCTYSISLEEGFSVILDFVESFDVETHPETLCPYDFLKIQTDREEHGPFCGKTLPHRIETKSNTVTITFVTDESGDHTGWKIHYTSTAQPCPYPMAPPNGHVSPVQAKYILKDSFSIFCETGYELLQGHLPLKSFTAVCQKDGSWDRPMPACSIVDCGPPDDLPSGRVEYITGPGVTTYKAVIQYSCEETFYTMKVNDGKYVCEADGFWTSSKGEKSLPVCEPVCGLSARTTGGRIYGGQKAKPGDFPWQVLILGGTTAAGALLYDNWVLTAAHAVYEQKHDASALDIRMGTLKRLSPHYTQAWSEAVFIHEGYTHDAGFDNDIALIKLNNKVVINSNITPICLPRKEAESFMRTDDIGTASGWGLTQRGFLARNLMYVDIPIVDHQKCTAAYEKPPYPRGSVTANMLCAGLESGGKDSCRGDSGGALVFLDSETERWFVGGIVSWGSMNCGEAGQYGVYTKVINYIPWIENIISDF
notes: also called Purified MASP-2

Assays:
[1] = biological target: B2; assay: SPR; purified proteins; who was immobilised and the conditions not given; settings: both partners purified
[2] = biological target: Purified SARS-CoV-2 N-His (SARS-CoV-2, UniProt P0DTC9 1-419); assay: as above; settings: both partners purified

Binder	Kd [1] [nM]	Kd [2] [nM]
B1	268	–
B2	–	518
